Source: US20230250154A1 (CYTONICS, published 2023)

Tests used:
Assay in all cases: cell-based or functional assay
MMP3 = MMP3 (human, UniProt P08254 100-477, limits assumed)
ADAMTS5 = molecular target: T1, ADAMTS5 (human, UniProt Q9UNA0 262-622, limits assumed)
T1 sequence (looked up): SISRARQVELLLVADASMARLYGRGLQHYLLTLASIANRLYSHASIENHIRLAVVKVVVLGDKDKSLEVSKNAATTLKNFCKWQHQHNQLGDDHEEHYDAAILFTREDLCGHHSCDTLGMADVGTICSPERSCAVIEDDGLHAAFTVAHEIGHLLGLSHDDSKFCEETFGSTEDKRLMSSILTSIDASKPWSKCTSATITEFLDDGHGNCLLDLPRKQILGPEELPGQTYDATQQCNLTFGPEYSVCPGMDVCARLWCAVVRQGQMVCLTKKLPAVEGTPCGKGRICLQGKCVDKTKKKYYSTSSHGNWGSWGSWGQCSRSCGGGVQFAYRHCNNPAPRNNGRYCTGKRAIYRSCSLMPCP

MMP2 = molecular target: T2, MMP2 (human, UniProt P08253 110-660, limits assumed)
T2 sequence (looked up): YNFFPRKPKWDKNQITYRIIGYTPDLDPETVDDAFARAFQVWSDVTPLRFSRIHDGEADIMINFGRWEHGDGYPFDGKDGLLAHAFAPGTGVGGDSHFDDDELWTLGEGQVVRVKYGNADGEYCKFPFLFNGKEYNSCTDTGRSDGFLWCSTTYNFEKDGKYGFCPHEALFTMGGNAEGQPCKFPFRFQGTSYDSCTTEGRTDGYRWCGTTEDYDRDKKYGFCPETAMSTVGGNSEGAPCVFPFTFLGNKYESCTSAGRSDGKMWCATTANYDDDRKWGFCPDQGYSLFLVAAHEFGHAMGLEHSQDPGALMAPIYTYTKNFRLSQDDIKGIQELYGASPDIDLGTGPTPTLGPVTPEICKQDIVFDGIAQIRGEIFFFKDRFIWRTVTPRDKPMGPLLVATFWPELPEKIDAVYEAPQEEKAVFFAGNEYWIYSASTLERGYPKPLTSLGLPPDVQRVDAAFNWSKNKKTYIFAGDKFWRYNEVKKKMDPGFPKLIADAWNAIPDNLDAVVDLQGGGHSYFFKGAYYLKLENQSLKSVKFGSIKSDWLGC

MMP1 = molecular target: T3, MMP1 (human, UniProt P03956 100-469, limits assumed)
T3 sequence (looked up): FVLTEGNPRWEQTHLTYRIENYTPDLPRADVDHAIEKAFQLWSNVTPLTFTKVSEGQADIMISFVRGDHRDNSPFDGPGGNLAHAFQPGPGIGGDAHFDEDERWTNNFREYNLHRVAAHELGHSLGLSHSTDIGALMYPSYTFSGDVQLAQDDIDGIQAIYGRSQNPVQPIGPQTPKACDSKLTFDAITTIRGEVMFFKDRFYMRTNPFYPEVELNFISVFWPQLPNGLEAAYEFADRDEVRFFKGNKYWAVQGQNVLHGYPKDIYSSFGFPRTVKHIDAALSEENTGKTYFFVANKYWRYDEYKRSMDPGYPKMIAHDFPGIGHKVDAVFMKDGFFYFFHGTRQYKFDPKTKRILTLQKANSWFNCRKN

MMP7 = molecular target: T4, MMP7 (UniProt P09237 95-267, limits assumed)
T4 sequence (looked up): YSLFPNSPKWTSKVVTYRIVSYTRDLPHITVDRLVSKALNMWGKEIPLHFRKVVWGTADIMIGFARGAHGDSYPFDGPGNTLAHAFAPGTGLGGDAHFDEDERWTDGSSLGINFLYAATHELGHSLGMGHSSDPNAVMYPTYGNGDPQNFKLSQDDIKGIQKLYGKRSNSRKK

MMP9 = MMP9 (human, UniProt P14780 107-707, limits assumed)
Chain of MMP9 (P14780 107-707 limits assumed): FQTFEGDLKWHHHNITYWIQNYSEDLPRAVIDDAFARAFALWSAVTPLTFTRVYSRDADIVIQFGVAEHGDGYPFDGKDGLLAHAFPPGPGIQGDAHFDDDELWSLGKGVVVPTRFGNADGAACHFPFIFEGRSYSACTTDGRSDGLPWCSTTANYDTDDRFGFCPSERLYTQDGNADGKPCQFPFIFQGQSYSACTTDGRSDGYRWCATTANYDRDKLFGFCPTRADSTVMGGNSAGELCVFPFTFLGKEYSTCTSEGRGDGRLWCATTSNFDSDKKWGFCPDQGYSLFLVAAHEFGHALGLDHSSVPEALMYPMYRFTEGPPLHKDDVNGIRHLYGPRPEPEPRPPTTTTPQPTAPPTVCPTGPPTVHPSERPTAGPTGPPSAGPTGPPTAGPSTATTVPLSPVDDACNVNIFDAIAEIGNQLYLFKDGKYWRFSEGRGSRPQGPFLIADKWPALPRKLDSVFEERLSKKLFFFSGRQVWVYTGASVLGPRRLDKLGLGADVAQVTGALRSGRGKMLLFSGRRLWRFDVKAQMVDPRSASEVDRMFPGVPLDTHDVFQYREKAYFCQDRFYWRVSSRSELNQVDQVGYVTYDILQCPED

MMP13 = MMP13 (human, UniProt P45452 104-471, limits assumed)
MMP8 = MMP8 (human, UniProt P22894 101-467, limits assumed)
Chain of MMP8 (P22894 101-467 limits assumed): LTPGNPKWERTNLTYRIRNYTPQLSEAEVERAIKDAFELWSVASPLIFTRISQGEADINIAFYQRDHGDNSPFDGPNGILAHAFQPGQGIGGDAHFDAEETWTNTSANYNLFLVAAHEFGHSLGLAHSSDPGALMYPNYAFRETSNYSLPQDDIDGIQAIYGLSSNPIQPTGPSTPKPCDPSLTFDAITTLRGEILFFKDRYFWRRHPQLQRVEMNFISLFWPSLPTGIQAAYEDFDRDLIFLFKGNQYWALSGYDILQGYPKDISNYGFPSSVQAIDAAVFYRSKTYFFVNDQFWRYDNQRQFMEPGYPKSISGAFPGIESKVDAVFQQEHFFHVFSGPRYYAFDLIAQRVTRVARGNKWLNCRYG

Cathepsin G = molecular target: T5, Cathepsin G (UniProt P08311 21-244)
T5 sequence (looked up): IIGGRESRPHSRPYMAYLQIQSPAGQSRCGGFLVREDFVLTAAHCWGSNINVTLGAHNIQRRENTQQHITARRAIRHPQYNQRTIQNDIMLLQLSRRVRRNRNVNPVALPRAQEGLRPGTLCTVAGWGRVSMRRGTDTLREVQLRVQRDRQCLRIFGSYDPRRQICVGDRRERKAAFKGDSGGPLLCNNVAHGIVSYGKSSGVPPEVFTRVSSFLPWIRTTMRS

Elastase = molecular target: Elastase

Chain of MMP3 (P08254 100-477 limits assumed): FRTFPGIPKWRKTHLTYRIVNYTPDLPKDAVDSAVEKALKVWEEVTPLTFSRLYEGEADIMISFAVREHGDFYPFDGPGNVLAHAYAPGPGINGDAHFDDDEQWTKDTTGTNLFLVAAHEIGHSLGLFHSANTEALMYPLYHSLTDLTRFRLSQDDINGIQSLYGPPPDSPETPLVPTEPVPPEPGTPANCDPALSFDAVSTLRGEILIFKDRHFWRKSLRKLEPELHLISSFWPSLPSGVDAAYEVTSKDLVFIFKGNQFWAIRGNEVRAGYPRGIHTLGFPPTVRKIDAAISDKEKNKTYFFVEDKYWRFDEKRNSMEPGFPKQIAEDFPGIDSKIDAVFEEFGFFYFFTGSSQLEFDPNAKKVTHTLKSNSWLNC

B1: Variant A2M, bait region SEQ ID NO 16 (other)
chain: SVSGKPQYMVLVPSLLHTETTEKGCVLLSYLNETVTVSASLESVRGNRSLFTDLEAENDVLHCVAFAVPKSSSNEEVMFLTVQVKGPTQEFKKRTTVMVKNEDSLVFVQTDKSIYKPGQTVKFRVVSMDENFHPLNELIPLVYIQDPKGNRIAQWQSFQLEGGLKQFSFPLSSEPFQGSYKVVVQKKSGGRTEHPFTVEEFVLPKFEVQVTVPKIITILEEEMNVSVCGLYTYGKPVPGHVTVSICRKYSDASDCHGEDSQAFCEKFSGQLNSHGCFYQQVKTKVFQLKRKEYEMKLHTEAQIQEEGTVVELTGRQSSEITRTITKLSFVKVDSHFRQGIPFFGQVRLVDGKGVPIPNKVIFIRGNEANYYSNATTDEHGLVQFSINTTNVMGTSLTVRVNYKDRSPCYGYQWVSEEHEEAHHTAYLVFSPSKSFVHLEPMSHELPCGHTQTVQAHYILNGGTLLGLKKLSFYYLIMAKGGIVRTGTHGLLVKQEDMKGHFSISIPVKSDIAPVARLLIYAVLPTGDVIGDSAKYDVENCLANKVDLSFSPSQSLPASHAHLRVTAAPQSVCALRAVDQSVLLMKPDAELSASSVYNLLPEKDLTGFPGPLNDQDDEDCINRHNVYINGITYTPVSSTNEKDMYSFLEDMGLKAFTNSKIRKPKMCPQLEHGPEFRGVTRYLTAIPENFYGVSELEGRGSSEDLVVQIVEEPHTKLRKYFPETWIWDLVVVNSAGVAEVGVTVPDTITEWKAGAFCLSEDAGLGISSTASLRAFQPFFVELTMPYSVIRGEAFTLKATVLNYLPKCIRVSVQLEASPAFLAVPVEKEQAPHCICANGRQTVSWAVTPKSLGNVNFTVSAEALESQELCGTEVPSVPEHGRKDTVIKPLLVEPEGLEKETTFNSLLCPSGGEVSEELSLKLPPNVVEESARASVSVLGDILGSAMQNTQNLLQMPYGCGEQNMVLFAPNIYVLDYLNETQQLTPEIKSKAIGYLNTGYQRQLNYKHYDGSYSTFGERYGRNQGNTWLTAFVLKTFAQARAYIFIDEAHITQALIWLSQRQKDNGCFRSSGSLLNNAIKGGVEDEVTLSAYITIALLEIPLTVTHPVVRNALFCLESAWKTAQEGDHGSHVYTKALLAYAFALAGNQDKRKEVLKSLNEEAVKKDNSVHWERPQKPKAPVGHFYEPQAPSAEVEMTSYVLLAYLTAQPAPTSEDLTSATNIVKWITKQQNAQGGFSSTQDTVVALHALSKYGAATFTRTGKAAQVTIQSSGTFSSKFQVDNNNRLLLQQVSLPELPGEYSMKVTGEGCVYLQTSLKYNILPEKEEFPFALGVQTLPQTCDEPKAHTSFQISLSVSYTGSRSASNMAIVDVKMVSGFIPLKPTVKMLERSNHVSRTEVSSNHVLIYLDKVSNQTLSLFFTVLQDVPVRDLKPAIVKVYDYYETDEFAIAEYNAPCSKDLGNADYKDDDDKGASHHHHHH
B1 was tested, and the “Protease Inhibition (% of WT)” value (MMP3) was 180 % of WT, the “Protease Inhibition (% of WT)” value (ADAMTS5) was 305 % of WT and the “Protease Inhibition (% of WT)” value (MMP2) was 92 % of WT. For the same binder, the “Protease Inhibition (% of WT)” value (MMP1) was 101 % of WT, the “Protease Inhibition (% of WT)” value (MMP7) was 105 % of WT and the “Protease Inhibition (% of WT)” value (MMP9) was 84 % of WT. For the same binder, the “Protease Inhibition (% of WT)” value (MMP13) was 104 % of WT, the “Protease Inhibition (% of WT)” value (MMP8) was 92 % of WT and the “Protease Inhibition (% of WT)” value (Cathepsin G) was 105 % of WT. For the same binder, the “Protease Inhibition (% of WT)” value (Elastase) was 91 % of WT.
